Results reported in patent US20130011427A1 (priority 2009, published 2013).

What was measured:
Test in all cases: cell-based or functional assay
[1] = molecular target: HLA-A2.1 (HHD monochain) (human; murine)
[2] = molecular target: HLA-DR2 (chimeric HLA-DRA1*0101/DRB1*1501 with I-E domains) (human; murine) (UniProt Q8BHN5)
[3] = molecular target: HLA-DR3 (HLA-DRA*0101 / HLA-DRB1*0301) (human)
[4] = molecular target: HLA-DR4 (HLA-DRA*0101 / HLA-DRB1*0401) (human)
[5] = molecular target: HLA-B7 (chimeric HLA-B*0702 / H-2K^d heavy chain) (human; murine) (UniProt P01902)
UniProt P01902, sequence (P01902 whole entry, change not shown): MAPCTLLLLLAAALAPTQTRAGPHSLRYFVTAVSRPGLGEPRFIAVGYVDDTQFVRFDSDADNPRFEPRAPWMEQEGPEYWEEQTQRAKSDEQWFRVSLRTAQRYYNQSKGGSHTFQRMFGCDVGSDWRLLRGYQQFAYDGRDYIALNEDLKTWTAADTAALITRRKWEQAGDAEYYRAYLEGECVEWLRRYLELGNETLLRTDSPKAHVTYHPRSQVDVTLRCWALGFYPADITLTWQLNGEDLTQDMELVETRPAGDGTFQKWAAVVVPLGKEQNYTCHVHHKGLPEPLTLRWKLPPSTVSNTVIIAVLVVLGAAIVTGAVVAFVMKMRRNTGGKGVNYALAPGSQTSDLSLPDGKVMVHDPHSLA

UniProt Q8BHN5, sequence (Q8BHN5 whole entry, stated change not applied): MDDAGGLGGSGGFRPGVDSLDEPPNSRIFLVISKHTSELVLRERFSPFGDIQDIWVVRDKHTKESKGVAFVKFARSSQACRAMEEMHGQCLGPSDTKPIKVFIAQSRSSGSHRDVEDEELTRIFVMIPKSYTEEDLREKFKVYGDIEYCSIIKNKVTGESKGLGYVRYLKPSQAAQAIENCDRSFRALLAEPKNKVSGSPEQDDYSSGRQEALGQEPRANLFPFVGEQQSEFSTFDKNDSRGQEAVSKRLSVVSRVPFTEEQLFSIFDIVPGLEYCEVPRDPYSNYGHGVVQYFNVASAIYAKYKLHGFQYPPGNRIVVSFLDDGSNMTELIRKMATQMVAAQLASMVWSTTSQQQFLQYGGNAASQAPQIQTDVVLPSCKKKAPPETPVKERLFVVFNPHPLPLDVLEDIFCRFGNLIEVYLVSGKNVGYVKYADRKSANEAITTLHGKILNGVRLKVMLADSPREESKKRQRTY

Row | Substance | IFN-γ ELISpot (SFC/10^6) [3] [SFC/10^6] | IFN-γ ELISpot (SFC/10^6) [4] [SFC/10^6] | also measured
1 | WNV E 486-501 peptide | 244 | – | IFN-γ ELISpot (SFC/10^6) [1]: 323 SFC/10^6; IFN-γ ELISpot (SFC/10^6) [2]: 214 SFC/10^6
2 | WNV NS1 1-19 peptide | 572 | – | –
3 | WNV NS1 10-27 peptide | – | 63 | –
4 | WNV NS1 18-35 peptide | 52 | – | –
5 | WNV NS1 205-221 peptide | – | 61 | –
6 | WNV NS1 270-287 peptide | – | 54 | –
7 | WNV NS1 305-322 peptide | 557 | 109 | –
8 | WNV NS1 327-343 peptide | – | 78 | –
9 | WNV NS2a 65-81 peptide | – | 60 | –
10 | WNV NS2a 168-183 peptide | 231 | – | IFN-γ ELISpot (SFC/10^6) [2]: 556 SFC/10^6
11 | WNV NS2b 1-18 peptide | – | 104 | –
12 | WNV NS3 1-15 peptide | – | – | IFN-γ ELISpot (SFC/10^6) [5]: 45 SFC/10^6
13 | WNV NS3 6-23 peptide | – | 43 | –
14 | WNV NS3 37-54 peptide | 368 | – | IFN-γ ELISpot (SFC/10^6) [2]: 149 SFC/10^6
15 | WNV NS3 45-59 peptide | 63 | – | –
16 | WNV NS3 228-243 peptide | – | 46 | –
17 | WNV NS3 474-489 peptide | 83 | – | IFN-γ ELISpot (SFC/10^6) [1]: 92 SFC/10^6
18 | WNV NS3 480-496 peptide | 121 | – | –
19 | WNV NS3 487-501 peptide | 431 | – | IFN-γ ELISpot (SFC/10^6) [1]: 308 SFC/10^6
20 | WNV NS3 492-509 peptide | 216 | – | –
21 | WNV NS3 500-517 peptide | 145 | – | IFN-γ ELISpot (SFC/10^6) [2]: 51 SFC/10^6

Row | Substance | IFN-γ ELISpot (SFC/10^6) [3] [SFC/10^6] | IFN-γ ELISpot (SFC/10^6) [4] [SFC/10^6] | also measured
22 | WNV NS3 560-574 peptide | 225 | – | –
23 | WNV NS3 581-597 peptide | – | 52 | –
24 | WNV NS4a 1-17 peptide | 132 | – | –
25 | WNV NS4a 15-31 peptide | – | 187 | IFN-γ ELISpot (SFC/10^6) [2]: 278 SFC/10^6
26 | WNV NS4b 38-55 peptide | 67 | – | IFN-γ ELISpot (SFC/10^6) [2]: 57 SFC/10^6
27 | WNV NS4b 63-80 peptide | 386 | 92 | –
28 | WNV NS4b 101-118 peptide | – | 134 | –
29 | WNV NS4b 187-204 peptide | – | 83 | –
30 | WNV NS4b 201-218 peptide | 99 | 73 | –
31 | WNV NS5 115-132 peptide | 79 | – | –
32 | WNV NS5 145-162 peptide | – | – | IFN-γ ELISpot (SFC/10^6) [5]: 50 SFC/10^6
33 | WNV NS5 153-168 peptide | – | – | IFN-γ ELISpot (SFC/10^6) [1]: 332 SFC/10^6; IFN-γ ELISpot (SFC/10^6) [5]: 112 SFC/10^6; IFN-γ ELISpot (SFC/10^6) [2]: 250 SFC/10^6
34 | WNV NS5 605-622 peptide | – | 240 | IFN-γ ELISpot (SFC/10^6) [2]: 556 SFC/10^6
35 | WNV NS5 704-721 peptide | – | 65 | –
36 | WNV NS5 763-780 peptide | – | 91 | IFN-γ ELISpot (SFC/10^6) [5]: 36 SFC/10^6
37 | WNV NS5 771-788 peptide | – | 135 | –
38 | WNV NS5 791-808 peptide | – | 78 | –
39 | WNV NS5 828-843 peptide | – | – | IFN-γ ELISpot (SFC/10^6) [5]: 39 SFC/10^6
40 | WNV prM 121-138 peptide | – | 56 | IFN-γ ELISpot (SFC/10^6) [2]: 130 SFC/10^6
41 | WNV prM 136-153 peptide | 78 | 327 | IFN-γ ELISpot (SFC/10^6) [2]: 235 SFC/10^6
42 | WNV prM 152-167 peptide | 90 | 117 | IFN-γ ELISpot (SFC/10^6) [1]: 318 SFC/10^6; IFN-γ ELISpot (SFC/10^6) [2]: 269 SFC/10^6
